Some results are limits rather than exact numbers.

The text below walks through data of PMC2169435.

For assay [1], the target named is PS1 COOH-terminal bait (human). Put plainly: two-hybrid.
Assay [2] concerns the target PS2 COOH-terminal 39-amino acid bait (residues K410-I448) (human) (UniProt P49810). Put plainly: two-hybrid.

Sequence of PS2 COOH-terminal 39-amino acid bait (residues K410-I448) (human) (P49810 410-448): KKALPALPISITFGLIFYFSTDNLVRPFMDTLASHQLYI

For the substance “near full-length ubiquilin Y2H prey clone (residues 37-595) (domain or fragment)”, the fold beta-galactosidase activity over negative-control baits in assay [1] was > 12 fold; in assay [2], > 55 fold.

Turning to “ubiquilin Y2H prey clone encoding the COOH-terminal 218 residues (domain or fragment)”, the fold beta-galactosidase activity over negative-control baits in assay [2] was > 55 fold.
